Assay results published in PMC5859130, “Ixonnexin from Tick Saliva Promotes Fibrinolysis by Interacting with Plasminogen and Tissue-Type Plasminogen Activator, and Prevents Arterial Thrombosis” (Scientific Reports, 2018).

What was measured:
[1] = target: T1, Lys-plasminogen (UniProt P00747 97-810); test: SPR; Ixonnexin amine-coupled to a carboxymethylated dextran (CM5) chip, 726.2 RU; analytes injected 120 s at 30 µL/min, 25 °C, dissociation 600 s; global fit with the two-state (conformational change) model, Langmuir 1:1 for plasmin; settings: both partners purified
T1 construct: source: bought: Enzyme Research Laboratories or Innovative Research

[2] = target: Factor Xa; test: cell-based or functional assay
[3] = target: the molecule itself; test: SEC; Superdex 75 10/300, 20 mM Tris-HCl, 0.15 M NaCl, pH 8, 0.5 mL/min; column calibrated with salivary proteins of known mass

Chain of Factor Xa (P00742 32-488): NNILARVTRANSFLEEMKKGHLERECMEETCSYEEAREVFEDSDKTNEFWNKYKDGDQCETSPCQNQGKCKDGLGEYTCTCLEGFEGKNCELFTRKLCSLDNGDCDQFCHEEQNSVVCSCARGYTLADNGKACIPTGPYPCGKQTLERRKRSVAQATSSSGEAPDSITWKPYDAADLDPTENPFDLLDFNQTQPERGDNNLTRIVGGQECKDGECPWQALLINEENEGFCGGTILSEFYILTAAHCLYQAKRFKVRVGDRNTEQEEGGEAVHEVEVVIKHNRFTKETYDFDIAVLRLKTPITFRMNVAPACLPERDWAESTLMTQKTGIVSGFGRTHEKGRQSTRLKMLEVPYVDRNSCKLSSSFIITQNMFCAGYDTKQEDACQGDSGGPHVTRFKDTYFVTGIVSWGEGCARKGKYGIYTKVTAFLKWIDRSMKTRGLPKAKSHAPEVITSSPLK
T1 sequence (P00747 97-810): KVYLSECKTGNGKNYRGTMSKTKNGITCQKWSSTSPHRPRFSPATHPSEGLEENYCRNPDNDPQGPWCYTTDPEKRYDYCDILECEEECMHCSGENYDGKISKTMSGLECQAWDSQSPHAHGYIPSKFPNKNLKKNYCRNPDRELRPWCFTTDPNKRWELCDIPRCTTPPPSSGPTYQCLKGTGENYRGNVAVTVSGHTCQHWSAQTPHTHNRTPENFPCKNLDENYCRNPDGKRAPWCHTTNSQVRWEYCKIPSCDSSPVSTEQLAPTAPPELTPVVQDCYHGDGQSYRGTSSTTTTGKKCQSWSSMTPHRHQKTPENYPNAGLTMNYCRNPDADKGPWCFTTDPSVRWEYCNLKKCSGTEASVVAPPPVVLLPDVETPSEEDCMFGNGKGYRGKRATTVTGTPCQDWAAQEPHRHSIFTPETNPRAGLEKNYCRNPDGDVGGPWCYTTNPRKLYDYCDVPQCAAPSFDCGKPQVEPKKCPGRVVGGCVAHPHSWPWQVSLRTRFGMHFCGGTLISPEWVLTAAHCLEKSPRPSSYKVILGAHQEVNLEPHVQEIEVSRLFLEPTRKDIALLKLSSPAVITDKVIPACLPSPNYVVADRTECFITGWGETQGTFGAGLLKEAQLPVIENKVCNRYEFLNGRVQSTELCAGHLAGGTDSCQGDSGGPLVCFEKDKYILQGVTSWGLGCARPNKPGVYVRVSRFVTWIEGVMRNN

B1: Ixonnexin (natural protein)
chain: HNCQNGTRPASEENREGCDYYCWNAETKSWDQFFFGNGERCFYNTGEKGTCLNGECHLTTSSGGPDDTGDNTPPPTEKPKQKKKKPKKTKKPKRKSKKDQKENF
notes: Ixonnexin, 'Basic-tail' family salivary protein of Ixodes scapularis (gi 67083505); the precursor has a signal peptide of 21 residues (cut between Ala21 and His22); the mature protein of 104 residues was synthesized; numbers count on: the mature protein; 3 disulfide bonds after folding; Gel filtration is consistent with a non-covalent dimer; mass spectrometry gave a single monomeric mass; also …
[1]
  Kd: 14.4 nM
[2]
  amidolytic activity of FXa (0.33 nM) on a fluorogenic substrate, enhanced by Ixonnexin: IC50: 9.73 nM
[3]
  stoichiometry N: 2
